Experimental data published in US7148338B2, “Nucleic acids encoding dipeptidyl peptidases” (The University of Sydney, priority 1999, dated 2006).

B1: DPP8: novel human dipeptidyl peptidase, amino acid sequence SEQ ID NO:1, 882 amino acids (protein, listed as Homo Sapiens)
chain: MAAAMETEQLGVEIFETADCEENIESQDRPKLEPFYVERYSWSQLKKLLADTRKYHGYMMAKAPHDFMFVKRNDPDGPHSDRIYYLAMSGENRENTLFYSEIPKTINRAAVLMLSWKPLLDLFQATLDYGMYSREEELLRERKRIGTVGIASYDYHQGSGTFLFQAGSGIYHVKDGGPQGFTQQPLRPNLVETSCPNIRMDPKLCPADPDWIAFIHSNDIWISNIVTREERRLTYVHNELANMEEDARSAGVATFVLQEEFDRYSGYWWCPKAETTPSGGKILRILYEENDESEVEIIHVTSPMLETRRADSFRYPKTGTANPKVTFKMSEIMIDAEGRIIDVIDKELIQPFEILFEGVEYIARAGWTPEGKYAWSILLDRSQTRLQIVLISPELFIPVEDDVMERQRLIESVPDSVTPLIIYEETTDIWINIHDIFHVFPQSHEEEIEFIFASECKTGFRHLYKITSILKESKYKRSSGGLPAPSDFKCPIKEEIAITSGEWEVLGRHGSNIQVDEVRRLVYFEGTKDSPLEHHLYVVSYVNPGEVTRLTDRGYSHSCCISQHCDFFISKYSNQKNPHCVSLYKLSSPEDDPTCKTKEFWATILDSAGPLPDYTPPEIFSFESTTGFTLYGMLYKPHDLQPGKKYPTVLFIYGGPQVQLVNNRFKGVKYFRLNTLASLGYVVVVIDNRGSCHRGLKFEGAFKYKMGQIEIDDQVEGLQYLASRYDFIDLDRVGIHGWSYGGYLSLMALMQRSDIFRVAIAGAPVTLWIFYDTGYTERYMGHPDQNEQGYYLGSVAMQAEKFPSEPNRLLLLHGFLDENVHFAHTSILLSFLVRAGKPYDLQIYPQERHSIRVPESGEHYELHLLHYLQENLGSRIAALKVI
B2: DPPIV: dipeptidyl peptidase IV, comparator enzyme (protein)
chain: MKTPWKVLLGLLGAAALVTIITVPVVLLNKGTDDATADSRKTYTLTDYLKNTYRLKLYSLRWISDHEYLYKQENNILVFNAEYGNSSVFLENSTFDEFGHSINDYSISPDGQFILLEYNYVKQWRHSYTASYDIYDLNKRQLITEERIPNNTQWVTWSPVGHKLAYVWNNDIYVKIEPNLPSYRITWTGKEDIIYNGITDWVYEEEVFSAYSALWWSPNGTFLAYAQFNDTEVPLIEYSFYSDESLQYPKTVRVPYPKAGAVNPTVKFFVVNTDSLSSVTNATSIQITAPASMLIGDHYLCDVTWATQERISLQWLRRIQNYSVMDICDYDESSGRWNCLVARQHIEMSTTGWVGRFRPSEPHFTLDGNSFYKIISNEEGYRHICYFQIDKKDCTFITKGTWEVIGIEALTSDYLYYISNEYKGMPGGRNLYKIQLSDYTKVTCLSCELNPERCQYYSVSFSKEAKYYQLRCSGPGLPLYTLHSSVNDKGLRVLEDNSALDKMLQNVQMPSKKLDFIILNETKFWYQMILPPHFDKSKKYPLLLDVYAGPCSQKADTVFRLNWATYLASTENIIVASFDGRGSGYQGDKIMHAINRRLGTFEVEDQIEAARQFSKMGFVDNKRIAIWGWSYGGYVTSMVLGSGSGVFKCGIAVAPVSRWEYYDSVYTERYMGLPTPEDNLDHYRNSTVMSRAENFKQVEYLLIHGTADDNVHFQQSAQISKALVDVGVDFQAMWYTDEDHGIASSTAHQHIYTHMSHFIKQCFSLP
modifications: left off: small tags and cut ends
notes: dipeptidyl peptidase IV, comparator enzyme

Legend:
DPP8 = biological target: T1, DPP8 (Homo sapiens, UniProt Q6V1X1); assay: pH-dependence of DPP8 enzyme activity; type: biochemical
T1 construct: the full length DPP8 cDNA of 3.1 kb was cloned into the Xba I site of pcDNA3.1A/V5/His expression vector; expressed in transfected cells; host or cells: COS-7 (monkey kidney fibroblast) cells; clarified sonicated cell extract
Method: FIG. 7. DPP8 enzyme activity. (A) pH-dependence of DPP8 enzyme activity. (B) DPP8 and DPPIV enzyme kinetics. Means +/− SD of absorbance change per minute, multiplied by 1000 are shown. Curve fitting assumed Michaelis-Menten kinetics.
Enzyme assays were performed as described previously. Either clarified cell extract from 1×10^4 sonicated COS-7 cells or purified protein derived from 1×10^5 cells was incubated with substrate in 70 μL phosphate buffer, pH 7.4, for 30 min at 37° C., except where otherwise indicated. The specific DPPIV substrates, Gly-Pro-toluenesulfonate, H-Gly-Pro-p-nitroanilide (NA)/HCl (Sigma, St Louis, Mo., USA) and Gly-Pro-7-amino-4-trifluromethylcoumarin (Calbiochem, San Diego, Calif., USA) were tested. Other substrates tested were H-Ala-Pro-pNA/HCl, H-Arg-Pro-pNA acetate salt, H-Lys-Ala-pNA.2HCl, H-Asp-Pro-pNA, H-Ala-Ala-pNA/HCl, H-Ala-Ala-Pro-pNA/HCl, H-Ala-Ala-Phe-pNA, succinyl-Ala-Pro-pNA, H-Ala-Phe-Pro-pNA and Z-Ala-Pro-p-NA from Bachem (Switzerland). H-Ala-Pro-4-methoxyβNA/HCl, Z-Lys-Pro-4-methoxyβNAformate salt, H-Lys-Pro-4-methoxyβNA/HCl, Z-Ala-Pro-4-methoxyβNA, H-Gly-Pro-βNA and H-His-Ser-4-methoxyβNAacetate salt (Bachem) were tested for their ability to stain unfixed transfected cells. All inhibitors were (see Table 2) incubated with each purified enzyme in phosphate buffer, pH 7.4, for 15 min before the addition of substrate. […]

DPPIV = DPPIV (Homo sapiens, UniProt P27487); conditions: references [43,44]; cited from earlier work

| Molecule | pH optimum of enzyme activity (DPP8) | pH optimum of enzyme activity (DPPIV) |
| --- | --- | --- |
| B1 | 7.4 | – |
| B2 | – | 7.8 |
